Assay results taken from US9266930.
Like-named read-outs stand apart in the source and are kept apart here.

Experiments:
HLA-B*0702 (Human) [1] = molecular target: HLA-B*0702 (Human)
HLA-A*3101 (human) [2] = molecular target: HLA-A*3101 (human)
HLA-A*6801 (human) [3] = molecular target: HLA-A*6801 (human)
HLA-A*1101 (human) [4] = assay: competition with 125I-labelled standard peptide for purified HLA, gel filtration
HLA-A*3301 (human) [5] = assay: as above
HLA-A*3101 (human) [6] = assay: as above
HLA-A*0301 (human) [7] = assay: as above
[8] = molecular target: T1, HLA-DR9 (DRB1*0901) (human)
T1 chain 1: not shown
T1 chain 2: not shown

[9] = molecular target: T2, HLA-DR6w19 (DRB1*1302) (human)
T2 chain 1: not shown
T2 chain 2: not shown

[10] = molecular target: T3, HLA-DR5w12 (DRB1*1201) (human)
T3 chain 1: not shown
T3 chain 2: not shown

[11] = molecular target: T4, HLA-DR7 (DRB1*0701) (human)
T4 chain 1: not shown
T4 chain 2: not shown

[12] = molecular target: HLA-DR2w2β2 (DRB5*0101) (human); assay: competition with 125I-labeled probe peptide on purified HLA-DR, gel filtration
[13] = molecular target: HLA-DR1 (DRB1*0101) (human); assay: as above
[14] = molecular target: T5, HLA-DR4w4 (DRB1*0401) (human); assay: as above
T5 chain 1: not shown
T5 chain 2: not shown

[15] = molecular target: HLA-DR4w15 (DRB1*0405) (human); assay: as above
[16] = molecular target: HLA-DR5w11 (DRB1*1101) (human); assay: as above
[17] = molecular target: T6, HLA-DR2w2β2 (DRB5*0101) (human); assay: inhibition of 125I-probe peptide binding to purified HLA-DR, gel filtration
T6 chain 1: not shown
T6 chain 2: not shown

[18] = molecular target: T5, HLA-DR4w4 (DRB1*0401) (human); assay: as above
[19] = molecular target: T7, HLA-DR2w2β1 (DRB1*1501) (human); assay: as above
T7 chain 1: not shown
T7 chain 2: not shown

[20] = molecular target: T8, HLA-DR5w11 (DRB1*1101) (human); assay: as above
T8 chain 1: not shown
T8 chain 2: not shown

[21] = molecular target: T9, HLA-DR4w15 (DRB1*0405) (human); assay: as above
T9 chain 1: not shown
T9 chain 2: not shown

[22] = molecular target: T10, HLA-DR3 (DRB1*0301) (human); assay: as above
T10 chain 1: not shown
T10 chain 2: not shown

[23] = molecular target: T11, HLA-DR1 (DRB1*0101) (human); assay: as above
T11 chain 1: not shown
T11 chain 2: not shown

HLA-A*1101 (Human) [24] = assay: competition with 125I-labelled probe peptide for purified HLA-A*1101
HLA-A*6802 (human) = assay: competition with 125I probe peptide for purified HLA, gel filtration
HLA-A*0203 (human) = assay: as above
HLA-B*0702 (human) [25] = assay: as above
HLA-B*5401 (human) = assay: as above
HLA-A*1101 (Human) [26] = molecular target: HLA-A*1101 (Human)
HLA-A*0301 (human) [27] = molecular target: HLA-A*0301 (human)
[28] = molecular target: T11, HLA-DR1 (DRB1*0101) (human)
[29] = molecular target: T2, HLA-DR6w19 (DRB1*1302) (human)
[30] = molecular target: T10, HLA-DR3 (DRB1*0301) (human)
[31] = molecular target: HLA-A*2401 (as the column head of Table X prints it), purified HLA class I molecule (human); assay: competition with 125I-labelled standard peptide for purified HLA, gel filtration
HLA-A*1101 (human) [32] = assay: competition with 125I-labeled probe peptide for purified HLA, gel filtration
HLA-A*3301 (human) [33] = assay: as above
HLA-A*3101 (human) [34] = assay: as above
HLA-A*6801 (human) [35] = assay: as above
HLA-A*0301 (human) [36] = assay: as above
HLA-B*0702 (Human) [37] = molecular target: HLA-B*0702 (Human); remark: listed apart in the source
HLA-A*6801 (human) [38] = assay: competition with 125I-labelled standard peptide for purified HLA, gel filtration
HLA-B*3501 (human) = assay: competition with 125I probe peptide for purified HLA, gel filtration
HLA-A*0301 (human) [39] = molecular target: HLA-A*0301 (human); remark: listed apart in the source
[40] = molecular target: T6, HLA-DR2w2β2 (DRB5*0101) (human)
[41] = molecular target: T5, HLA-DR4w4 (DRB1*0401) (human)
[42] = molecular target: T7, HLA-DR2w2β1 (DRB1*1501) (human)
[43] = molecular target: T8, HLA-DR5w11 (DRB1*1101) (human)
[44] = molecular target: T9, HLA-DR4w15 (DRB1*0405) (human)
[45] = molecular target: T10, HLA-DR3 (DRB1*0301) (human)
[46] = molecular target: T11, HLA-DR1 (DRB1*0101) (human)
HLA-A*0301 (human) [47] = molecular target: HLA-A*0301 (human); remark: listed apart in the source
HLA-A*1101 (human) [48] = molecular target: HLA-A*1101 (human)
HLA-A*0301 (human) [49] = molecular target: HLA-A*0301 (human); remark: listed apart in the source

B1: … (P. falciparum SSP2, position 382) (peptide)
peptide: NPEDDREENF
modifications: not checked
Work on B1 yielded a binding affinity ratio (IC50 of standard peptide / IC50 of test peptide) (HLA-B*0702 (Human) [1]) of 0.0001.

B2: … (P. falciparum CSP, position 335) (peptide)
peptide: NANANNAVK
modifications: not checked
For B2, the binding affinity ratio (IC50 of standard peptide / IC50 of test peptide) (HLA-A*3101 (human) [2]) was 0.0006 and the binding affinity ratio (IC50 of standard peptide / IC50 of test peptide) (HLA-A*6801 (human) [3]) was 0.021.

B3: VPLAMKLI (P. falciparum SSP2, position 69) (peptide)
peptide: VPLAMKLI
modifications: not checked
Work on B3 yielded a binding affinity ratio (IC50 of standard peptide / IC50 of test peptide) (HLA-B*0702 (Human) [1]) of 0.0001.

B4: … (peptide)
peptide: QSQDNNGNR
modifications: not checked
B4 showed a binding affinity ratio (IC50 of standard peptide / IC50 of test peptide) (HLA-A*1101 (human) [4]) of 0.0002, a binding affinity ratio (IC50 of standard peptide / IC50 of test peptide) (HLA-A*3301 (human) [5]) of 0.0093 and a binding affinity ratio (IC50 of standard peptide / IC50 of test peptide) (HLA-A*3101 (human) [6]) of 0.002. It also gave a binding affinity ratio (IC50 of standard peptide / IC50 of test peptide) (HLA-A*0301 (human) [7]) of 0.0005.

B5: … (Pf CSP DR-supermotif 15-mer, core …) (peptide)
peptide: VFNVVNSSIGLIMVL
modifications: not checked
For B5, the binding affinity ratio (relative to standard peptide) [8] was 0.5, the binding affinity ratio (relative to standard peptide) [9] was 0.26 and the binding affinity ratio (relative to standard peptide) [10] was 0.0015. For the same binder, the binding affinity ratio (relative to standard peptide) [11] was 0.18.

B6: … (peptide)
peptide: SCGVWDEWSPCSVTC
modifications: not checked
With B6 the binding affinity ratio (IC50 standard peptide / IC50 test peptide) [12] was -0.0005, the binding affinity ratio (IC50 standard peptide / IC50 test peptide) [13] was 0.0001 and the binding affinity ratio (IC50 standard peptide / IC50 test peptide) [14] was -0.0009. It also gave a binding affinity ratio (IC50 standard peptide / IC50 test peptide) [15] of -0.0009 and a binding affinity ratio (IC50 standard peptide / IC50 test peptide) [16] of -0.0002.

B7: … (P. falciparum EXP 15-mer, core …) (peptide)
peptide: RHPFKIGSSDPADNA
modifications: not checked
Work on B7 yielded a binding affinity ratio (relative binding) (ratio to standard peptide) [17] of -0.0005, a binding affinity ratio (relative binding) (ratio to standard peptide) [18] of 0.47 and a binding affinity ratio (relative binding) (ratio to standard peptide) [19] of -0.0004. The binding affinity ratio (relative binding) (ratio to standard peptide) [20] was 0.0056, the binding affinity ratio (relative binding) (ratio to standard peptide) [21] was 0.0029 and the binding affinity ratio (relative binding) (ratio to standard peptide) [22] was -0.0008. The binding affinity ratio (relative binding) (ratio to standard peptide) [23] was 0.0044.

B8: … (Pf CSP 17, A11 motif peptide) (peptide)
peptide: EALFQEYQCY
modifications: not checked
B8 showed a binding affinity ratio (IC50 of standard peptide / IC50 of test peptide) (HLA-A*1101 (Human) [24]) of 0.0002.

B9: 1167.18 (peptide)
peptide: ILSVSSFLFV
modifications: not checked
With B9 the IC50 (HLA-A*6802 (human)) was 2.1 µM and the IC50 (HLA-A*0203 (human)) was 0.019 µM.

B10: 1167.61 (peptide)
peptide: TPYAGEPAPF
modifications: not checked
Work on B10 yielded an IC50 (HLA-B*0702 (human) [25]) of 0.031 µM and an IC50 (HLA-B*5401 (human)) of 25 µM.

B11: … (P. falciparum EXP, position 42) (peptide)
peptide: GSGEPLIDVH
modifications: not checked
For B11, the binding affinity ratio (IC50 of standard peptide / IC50 of test peptide) (HLA-A*1101 (Human) [26]) was 0.0002 and the binding affinity ratio (IC50 of standard peptide / IC50 of test peptide) (HLA-A*0301 (human) [27]) was 0.0005.

B12: 35.0172 … (Pf SSP2 211) (peptide)
peptide: KCNLYADSAWENVKN
modifications: not checked
Work on B12 yielded an IC50 [28] of 23.4 µM, an IC50 [29] of 11.1 µM and an IC50 [30] of 0.857 µM.

B13: … (Pf SSP2 position 528, 9-mer) (peptide)
peptide: PYAGEPAPF
modifications: not checked
In the case of B13, the binding affinity ratio (IC50 of standard peptide / IC50 of test peptide) [31] is reported as 0.037.

B14: … (P. falciparum EXP, position 9, 10 amino acids) (peptide)
peptide: LALFFIIFNK
modifications: not checked
With B14 the binding affinity ratio (relative to standard peptide) (HLA-A*1101 (human) [32]) was 0.053, the binding affinity ratio (relative to standard peptide) (HLA-A*3301 (human) [33]) was 0.0076 and the binding affinity ratio (relative to standard peptide) (HLA-A*3101 (human) [34]) was 0.0072. The binding affinity ratio (relative to standard peptide) (HLA-A*6801 (human) [35]) was 0.0039 and the binding affinity ratio (relative to standard peptide) (HLA-A*0301 (human) [36]) was 0.014.

B15: … (P. falciparum SSP2, position 522) (peptide)
peptide: VPGAATPYA
modifications: not checked
B15 showed a binding affinity ratio (IC50 of standard peptide / IC50 of test peptide) (HLA-B*0702 (Human) [37]) of 0.0001.

B16: … (peptide)
peptide: YADSAWENVK
modifications: not checked
Work on B16 yielded a binding affinity ratio (IC50 of standard peptide / IC50 of test peptide) (HLA-A*1101 (human) [4]) of 0.0002, a binding affinity ratio (IC50 of standard peptide / IC50 of test peptide) (HLA-A*3301 (human) [5]) of 0.0009 and a binding affinity ratio (IC50 of standard peptide / IC50 of test peptide) (HLA-A*3101 (human) [6]) of 0.0009. The binding affinity ratio (IC50 of standard peptide / IC50 of test peptide) (HLA-A*6801 (human) [38]) was 0.0077.

B17: 19.0051 (peptide)
peptide: LPYGRTNL
modifications: not checked
B17 was tested, and the IC50 (HLA-B*3501 (human)) was > 30 µM.

B18: … (Pf SSP2 position 8, 10-mer) (peptide)
peptide: KYLVIVFLIF
modifications: not checked
B18 gave a binding affinity ratio (IC50 of standard peptide / IC50 of test peptide) [31] of 0.0003.

B19: … (Pf CSP 100, A11 motif peptide) (peptide)
peptide: EDNEKLRKPK
modifications: not checked
In the case of B19, the binding affinity ratio (IC50 of standard peptide / IC50 of test peptide) (HLA-A*1101 (Human) [24]) is reported as 0.0002.

B20: … (P. falciparum SSP2 position 504, 9-mer, A3 motif peptide) (peptide)
peptide: IAGGLALLA
modifications: not checked
In the case of B20, the binding affinity ratio (IC50 of standard peptide / IC50 of test peptide) (HLA-A*0301 (human) [39]) is reported as 0.0002.

B21: … (P. falciparum EXP 15-mer, core …) (peptide)
peptide: VFFLALFFIIFNKES
modifications: not checked
For B21, the binding affinity ratio (relative binding) (ratio to standard peptide) [40] was -0.0021, the binding affinity ratio (relative binding) (ratio to standard peptide) [41] was 0.0047 and the binding affinity ratio (relative binding) (ratio to standard peptide) [42] was 0.018. For the same binder, the binding affinity ratio (relative binding) (ratio to standard peptide) [43] was -0.0005, the binding affinity ratio (relative binding) (ratio to standard peptide) [44] was 0.01 and the binding affinity ratio (relative binding) (ratio to standard peptide) [45] was -0.0043. For the same binder, the binding affinity ratio (relative binding) (ratio to standard peptide) [46] was 0.0006.

B22: … (P. falciparum EXP, position 9) (peptide)
peptide: LALFFIIFNK
modifications: not checked
B22 was tested, and the binding affinity ratio (IC50 of standard peptide / IC50 of test peptide) (HLA-A*0301 (human) [47]) was 0.014.

B23: … (P. falciparum SSP2, position 406, 9 amino acids) (peptide)
peptide: NLPNDKSDR
modifications: not checked
B23 was tested, and the binding affinity ratio (relative to standard peptide) (HLA-A*1101 (human) [48]) was 0.0002 and the binding affinity ratio (relative to standard peptide) (HLA-A*0301 (human) [49]) was 0.0005.
